Data taken from PMC11655355 (Nature, 2024).

Columns and labels:
[1] = target: RCD1–SRO–TAF4 (RST) domain from RCD1, RCD1-RST_(499–572) (UniProt Q8RY59); assay: ITC
[2] = target: T1, RCD1–SRO–TAF4 (RST) domain from RCD1, RCD1-RST_(499–572) (UniProt Q8RY59 499-572); assay: ITC
T1 sequence (looked up): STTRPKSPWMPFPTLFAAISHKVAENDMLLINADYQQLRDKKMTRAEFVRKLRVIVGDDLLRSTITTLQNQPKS

Molecule | fold difference in Kd between L- and D-enantiomer [1] [fold] | binding result [2]
D-ANAC013_(254–274), synthetic D-peptide (from UniProt F4IED2 254-274) | 500 | –
D-ANAC046_(319–338), synthetic D-peptide (from UniProt Q9SQQ6 319-338) | 15 | –
D-DREB2A_(255–272), synthetic D-peptide (from UniProt O82132 255-272) | 72 | –
SSDMFDVDELLRDLNGDD (peptide, UniProt O82132 255-272, looked up) [L-DREB2A_(255–272), synthetic peptide] | – | binds
